Measurements as given in patent US20160017049A1 (Genentech, published 2016).

T1: huGPC(aa359-559) (human, UniProt P51654 359-559)
T1 construct: Expressed on the surface of 293 cells
T1 sequence: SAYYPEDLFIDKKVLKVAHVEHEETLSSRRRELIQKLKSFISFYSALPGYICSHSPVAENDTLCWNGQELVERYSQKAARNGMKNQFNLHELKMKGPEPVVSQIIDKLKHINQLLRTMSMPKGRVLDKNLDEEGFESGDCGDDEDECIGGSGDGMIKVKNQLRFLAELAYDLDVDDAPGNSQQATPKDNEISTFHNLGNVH

T2: huGPC(aa359-509) (HSV; human)
T2 construct: Expressed on the surface of 293 cells; not shown: C-terminal glycophosphatidylinositol anchor (GPI link)
T2 chain: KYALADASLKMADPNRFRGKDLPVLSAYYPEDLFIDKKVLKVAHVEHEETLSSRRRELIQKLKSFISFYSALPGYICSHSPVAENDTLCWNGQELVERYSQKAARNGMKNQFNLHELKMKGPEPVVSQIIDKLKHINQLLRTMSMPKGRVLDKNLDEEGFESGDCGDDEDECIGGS

T3: huGPC(aa359-470) (HSV; human)
T3 construct: Expressed on the surface of 293 cells; not shown: C-terminal glycophosphatidylinositol anchor (GPI link)
T3 chain: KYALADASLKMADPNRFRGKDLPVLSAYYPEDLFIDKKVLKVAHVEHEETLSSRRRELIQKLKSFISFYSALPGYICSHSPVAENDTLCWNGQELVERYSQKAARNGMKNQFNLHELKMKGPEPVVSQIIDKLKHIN

T4: human GPC3 C-terminal fragment, amino acids 359 to 560, with GPI link (human, UniProt P51654 359-560)
T4 construct: also called huGPC(aa359-560); not shown: C-terminal glycophosphatidylinositol anchor (GPI link)
T4 sequence: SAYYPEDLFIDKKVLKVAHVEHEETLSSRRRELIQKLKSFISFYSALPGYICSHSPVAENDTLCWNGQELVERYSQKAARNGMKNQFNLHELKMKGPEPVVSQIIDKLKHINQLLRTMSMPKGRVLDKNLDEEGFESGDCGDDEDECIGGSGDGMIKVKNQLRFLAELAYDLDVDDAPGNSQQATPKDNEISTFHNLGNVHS


How the values were obtained:
huGPC(aa359-559) = target: T1, huGPC(aa359-559); assay: FACS on 293 cells expressing the gD-tagged fragment
Description: (§1) C-terminal truncation constructs of huGPC(aa359-589) were made to further refine the epitopes for antibodies 4A11 and 15G1. […] The three C-terminal truncations each comprised an HSV N-terminal signal sequence (SS) and gD sequence (SEQ ID NO: 41) and C-terminal glycophosphatidylinositol anchor (GPI link). The huGPC truncation constructs were expressed on the surface of 293 cells and antibody binding was determined by FACS. An anti-gD was used as a positive control. Vector-transfected 293 cells were used as a negative control.

huGPC(aa359-509) = target: T2, huGPC(aa359-509); assay: as above
Description: as §1

huGPC(aa359-470) = target: T3, huGPC(aa359-470); assay: as above
Description: as §1

[1] = target: T4, human GPC3 C-terminal fragment, amino …; assay: FACS on 293S cells expressing the C-terminal fragment of GPC3
Description: C-terminal truncation constructs of human GPC3 were made to further refine the epitopes for antibodies 7H1 and 4G7. […] The three C-terminal truncations each comprised the GPC N-terminal signal sequence (SS) and C-terminal glycophosphatidylinositol anchor (GPI link). […] See FIG. 7 (Santa Cruz Biotechnology antibody 1G12, which was raised to amino acids 511-580 of human GPC3, was used as a positive control for C-terminal fragment binding). Antibody 7H1 was reformatted as a chimeric antibody with human A118C cysteine-engineered IgG1 and Igκ constant regions (SEQ ID NOs: 42 and 43).

[2] = target: T5, human GPC3 C-terminal truncation, amino acids 25 to 247, with GPI link (human, UniProt P51654 25-247); assay: Western blot probed with 7H1, lysate of transiently transfected cells
T5 construct: not shown: C-terminal glycophosphatidylinositol anchor (GPI link)
T5 sequence (P51654 25-247): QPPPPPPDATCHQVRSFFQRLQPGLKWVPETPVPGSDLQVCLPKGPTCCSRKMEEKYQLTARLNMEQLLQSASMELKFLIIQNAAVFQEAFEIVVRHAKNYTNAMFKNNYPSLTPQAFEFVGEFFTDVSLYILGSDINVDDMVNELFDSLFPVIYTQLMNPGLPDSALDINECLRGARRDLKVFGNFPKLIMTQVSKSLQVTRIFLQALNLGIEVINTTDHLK

[3] = target: T6, human GPC3 C-terminal truncation, amino acids 25 to 137, with GPI link (human, UniProt P51654 25-137); assay: as above
T6 construct: not shown: C-terminal glycophosphatidylinositol anchor (GPI link)
T6 sequence (P51654 25-137): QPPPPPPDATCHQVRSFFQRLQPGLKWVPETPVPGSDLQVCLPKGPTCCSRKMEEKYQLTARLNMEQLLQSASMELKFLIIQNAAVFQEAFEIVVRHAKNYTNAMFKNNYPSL

[4] = target: T7, human GPC3 N-terminal fragment, amino acids 25 to 358, with GPI link (human, UniProt P51654 25-358); assay: Western blot probed with 7H1, lysate of stably transfected cells
T7 construct: not shown: C-terminal glycophosphatidylinositol anchor (GPI link)
T7 sequence (P51654 25-358): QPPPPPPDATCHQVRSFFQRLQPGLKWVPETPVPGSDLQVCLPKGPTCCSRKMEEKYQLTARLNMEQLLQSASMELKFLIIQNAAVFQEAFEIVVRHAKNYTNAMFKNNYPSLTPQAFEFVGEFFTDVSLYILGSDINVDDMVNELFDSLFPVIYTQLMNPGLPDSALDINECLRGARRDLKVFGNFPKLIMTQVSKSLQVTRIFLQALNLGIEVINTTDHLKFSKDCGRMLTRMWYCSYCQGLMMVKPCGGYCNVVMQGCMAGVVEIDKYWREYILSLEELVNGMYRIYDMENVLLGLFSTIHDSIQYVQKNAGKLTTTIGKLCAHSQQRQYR

Binder	binding result (huGPC(aa359-559))	binding result (huGPC(aa359-509))	binding result (huGPC(aa359-470))	binding result [1]	binding result [2]	binding result [3]	binding result [4]
antibody 4A11 (antibody, human IgG1, kappa, also called 4A11 thio-HC A118C) heavy: not shown light: DIVMTQSPSSMYASLGERVTITCKASQDINSYLSWFQQKPGKSPKTLIYRVNRLVDGVPSRFSGSGSGQDYSLTISSLEYEDVGIYYCLQYDEFPLTLGAGTKLELKRTVAAPSVFIFPPSDEQLKSGTASVVCLLNNFYPREAKVQWKVDNALQSGNSQESVTEQDSKDSTYSLSSTLTLSKADYEKHKVYACEVTHQGLSSPVTKSFNRGEC	binds	binds					
antibody 15G1 (antibody, human IgG1, kappa, V domains shown, also called 15G1 thio-HC A118C) VH: EVQLLETGGGLVQPGGSRGLSCEGSGFTFSGFWMSWVRQTPGKTLEWIGDINSDGSSINYAPSIKDRFTIFRDNDKSILYLQMTNVRSEDTGTYFCVTTYGDYWGQGTTLTVSS VL: DIVMTQSQKFMSTSVGDRVSVTCKASQNVGSHVGWYQQKSGQSPKALIYSASNRYIGVPDRFTGSGSGTDFTLTISNVQSEDLAEYFCQQYHIYPYTFGGGTRLEIKR	binds	binds	binds				
antibody 7H1 (antibody, V domains shown, Mouse monoclonal from Balb/c mice immunised with huGPC3 ECD-Flag) VH: QVQLQQSGPELVKPGASVKISCKASGYTFTDYYINWVKQKPGQGLEWIGWIYPGSGHTECNETFKGKATLTVDTSSSTAYMQLSSLTSEDTAVYFCTRGYYAPMGYFDYWGQGTTLTVSS VL: DIQMTQSPSSLSASLGERVSLTCRASQEISGYLSWLQQKPDGTIKRLIYAASTLDSGVPKRFSGSRSGSDYSLTISGLESEDFADYYCLQYASYPYTFGGGTKLEIK				no binding	binds	binds	binds
antibody 4G7 (antibody, V domains shown) VH: EVQLQQSGTVLARPGASVKMSCKASGYTFTSYWVHWVKQRPGQGLEWIGAIYPGNIDASYNQKFKGKAKLTAVTSTSTAYMELSSLTNEDSAVYYCSYDYDAWFVYWGQGTLVTVSA VL: DIQMTQSHKFMSTSVGDRVSITCKASQDVSTAVAWYQQKPGQSPTLLIYSASYRYTGVPDRFTGSGSGTDFTFTISSVQAEDLAVYYCQQHYFTPRTFGGGTKLELK				no binding			
